Assay results reported in patent US20240261333A1 (published 2024).

Tests used:
Assay in all cases: co-IP with anti-FLAG, mass spectrometry; N-FLAG B3GNT2
EEF1A1 = biological target: T1, EEF1A1 (UniProt P68104 2-462)
T1 construct: Endogenous protein found in the co-IP by mass spectrometry; also called NP_001393.1
T1 sequence (looked up): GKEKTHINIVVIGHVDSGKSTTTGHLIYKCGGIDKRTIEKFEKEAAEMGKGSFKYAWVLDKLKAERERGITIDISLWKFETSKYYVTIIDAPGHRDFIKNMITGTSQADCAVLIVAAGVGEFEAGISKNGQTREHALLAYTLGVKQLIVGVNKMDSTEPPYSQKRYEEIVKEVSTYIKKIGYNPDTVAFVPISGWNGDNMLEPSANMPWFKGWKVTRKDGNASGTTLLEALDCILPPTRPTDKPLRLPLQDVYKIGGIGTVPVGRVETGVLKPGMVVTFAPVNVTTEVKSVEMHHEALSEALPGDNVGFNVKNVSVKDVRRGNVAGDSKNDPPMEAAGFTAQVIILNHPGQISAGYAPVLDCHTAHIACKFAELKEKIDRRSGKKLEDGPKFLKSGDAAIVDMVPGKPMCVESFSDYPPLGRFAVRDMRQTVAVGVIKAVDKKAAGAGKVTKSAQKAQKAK
Experimental: (§1) Cells were plated in 10-cm cell culture dishes and grown to 60-80% confluency. For each condition, two biological replicates were harvested for co-IP. Cells were washed with PBS and 4 mL of lysis buffer (20 mM HEPES, 1% Triton X-100, 150 mM NaCl, 1 mM EDTA, and 10% glycerol) containing protease inhibitor cocktail was added. Cells were scraped and lysate was incubated at 4° C. under rotary agitation for 1 h. Lysate was centrifuged at 14,000×g for 10 min at 4° C. Supernatant was transferred to a new tube and an aliquot was taken as the input. […] For Western blots, 10 μg/mL Chicken Anti-FLAG (Aves labs ET-DY100) and IgY control (R&D Systems AB-101-C) antibodies were biotinylated (Thermo Fisher Scientific 90407) and added to the respective conditions. Lysates with antibodies were incubated at 4° C. under rotary agitation overnight. For each mL of lysate, 50 μL of Pierce Protein A/G Magnetic Beads (Mass spectrometry; Thermo Fisher Scientific 88803) or Pierce Streptavidin Magnetic Beads (Western blot; Thermo Fisher Scientific 88817) was washed twice with lysis buffer. Lysates with antibodies were added to the beads and incubated at 4° C. under rotary agitation for 4 h. Beads were washed with lysis buffer 3 times and resuspended in lysis buffer for storage.
(§2) Magnetic beads were resuspended in 100 mM Tris pH 7.8, reduced, alkylated and digested with trypsin at 37° ° C. overnight. This solution was subjected to solid phase extraction to concentrate the peptides and remove unwanted reagents followed by injection onto a Shimadzu HPLC with fraction collector. Eight fractions were collected and after concentration were injected on a Waters NanoAcquity HPLC equipped with a self-packed Aeris 3 μm C18 analytical column 0.075 mm by 20 cm, (Phenomenex). Peptides were eluted using standard reverse-phase gradients. The effluent from the column was analyzed using a Thermo Orbitrap Elite mass spectrometer (nanospray configuration) operated in a data dependent manner for 54 minutes. The resulting fragmentation spectra were correlated against the known database using Proteome Discover 1.4 (Thermo Fisher Scientific).

HBA1 = biological target: T2, HBA1 (UniProt P69905 2-142)
T2 construct: Protein found in the co-IP by mass spectrometry; also called NP_000549.1
T2 sequence (P69905 2-142 limits assumed): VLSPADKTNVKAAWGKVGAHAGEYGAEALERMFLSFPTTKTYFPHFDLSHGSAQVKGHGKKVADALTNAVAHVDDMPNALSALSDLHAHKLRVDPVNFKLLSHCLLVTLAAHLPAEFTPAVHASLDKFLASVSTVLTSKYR
Experimental: as §1, §2

HNRNPF = biological target: T3, HNRNPF (UniProt P52597 2-415)
T3 construct: Endogenous protein found in the co-IP by mass spectrometry; also called NP_001091676.1
T3 sequence (looked up): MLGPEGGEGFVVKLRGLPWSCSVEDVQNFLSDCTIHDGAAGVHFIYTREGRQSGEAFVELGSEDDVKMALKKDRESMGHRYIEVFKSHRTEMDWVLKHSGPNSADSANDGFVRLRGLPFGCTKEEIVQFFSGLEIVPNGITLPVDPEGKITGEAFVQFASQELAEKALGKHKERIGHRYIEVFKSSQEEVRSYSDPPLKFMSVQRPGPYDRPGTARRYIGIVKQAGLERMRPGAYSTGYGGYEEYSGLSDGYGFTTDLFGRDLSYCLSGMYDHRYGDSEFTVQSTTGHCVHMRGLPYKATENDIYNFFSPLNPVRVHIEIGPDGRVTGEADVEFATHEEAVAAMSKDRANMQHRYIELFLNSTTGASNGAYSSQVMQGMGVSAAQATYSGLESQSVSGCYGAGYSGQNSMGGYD
Experimental: as §1, §2

RPS11 = RPS11 (UniProt P62280 2-158)
Experimental: as §1, §2

RPLP2 = biological target: T4, RPLP2 (UniProt P05387 1-115)
T4 construct: Endogenous protein found in the co-IP by mass spectrometry; also called NP_000995.1
T4 sequence (P05387 whole entry): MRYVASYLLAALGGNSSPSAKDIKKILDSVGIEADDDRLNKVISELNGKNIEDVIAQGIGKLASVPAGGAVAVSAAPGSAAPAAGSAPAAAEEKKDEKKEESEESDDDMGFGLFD
Experimental: as §1, §2

RPN1 = biological target: T5, RPN1 (UniProt P04843 24-607)
T5 construct: Endogenous protein found in the co-IP by mass spectrometry; also called NP_002941.1
T5 sequence (looked up): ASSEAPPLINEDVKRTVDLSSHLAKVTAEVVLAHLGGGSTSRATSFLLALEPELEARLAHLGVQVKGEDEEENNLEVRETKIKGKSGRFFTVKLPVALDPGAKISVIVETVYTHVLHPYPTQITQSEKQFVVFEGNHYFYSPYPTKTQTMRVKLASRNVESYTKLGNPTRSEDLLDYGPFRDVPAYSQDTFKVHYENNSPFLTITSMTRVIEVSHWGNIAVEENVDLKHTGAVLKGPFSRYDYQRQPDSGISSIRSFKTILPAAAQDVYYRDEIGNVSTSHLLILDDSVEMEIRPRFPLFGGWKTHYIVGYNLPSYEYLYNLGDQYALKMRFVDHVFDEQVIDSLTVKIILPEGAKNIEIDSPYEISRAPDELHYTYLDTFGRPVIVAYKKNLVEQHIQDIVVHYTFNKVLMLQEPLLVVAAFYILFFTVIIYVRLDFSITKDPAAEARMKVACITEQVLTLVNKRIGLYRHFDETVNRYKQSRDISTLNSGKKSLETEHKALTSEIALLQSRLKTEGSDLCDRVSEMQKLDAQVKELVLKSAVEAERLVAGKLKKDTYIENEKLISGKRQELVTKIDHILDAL
Experimental: as §1, §2

RPL35A = RPL35A (UniProt P18077 1-110)
Experimental: as §1, §2

RPL36 = RPL36 (UniProt Q9Y3U8 2-105)
Experimental: as §1, §2

co-IP mass spectrometry count (EEF1A1): 13
co-IP mass spectrometry count (HBA1): 3
co-IP mass spectrometry count (HNRNPF): 0
co-IP mass spectrometry count (RPS11): 13
co-IP mass spectrometry count (RPLP2): 6
co-IP mass spectrometry count (RPN1): 0
co-IP mass spectrometry count (RPL35A): 0
co-IP mass spectrometry count (RPL36): 0
B1: N-terminal FLAG tagged B3GNT2 (enzyme, human, UniProt Q9NY97 1-397, looked up)
chain: MSVGRRRIKLLGILMMANVFIYFIMEVSKSSSQEKNGKGEVIIPKEKFWKISTPPEAYWNREQEKLNRQYNPILSMLTNQTGEAGRLSNISHLNYCEPDLRVTSVVTGFNNLPDRFKDFLLYLRCRNYSLLIDQPDKCAKKPFLLLAIKSLTPHFARRQAIRESWGQESNAGNQTVVRVFLLGQTPPEDNHPDLSDMLKFESEKHQDILMWNYRDTFFNLSLKEVLFLRWVSTSCPDTEFVFKGDDDVFVNTHHILNYLNSLSKTKAKDLFIGDVIHNAGPHRDKKLKYYIPEVVYSGLYPPYAGGGGFLYSGHLALRLYHITDQVHLYPIDDVYTGMCLQKLGLVPEKHKGFRTFDIEEKNKNNICSYVDLMLVHSRKPQEMIDIWSQLQSAHLKC
notes: FLAG-tagged ORF overexpressed in cells; bait of the anti-FLAG co-IP; also called N-FLAG B3GNT2; N-term FLAG; not shown: FLAG tag at the N-terminus
